Patent US20170355774A1 (Regeneron, published 2017)

T1: human GITR (amino acids M1-V241, NCBI Accession #NP_004186.1) expressed on cells (human, UniProt Q9Y5U5 26-241)
T1 sequence: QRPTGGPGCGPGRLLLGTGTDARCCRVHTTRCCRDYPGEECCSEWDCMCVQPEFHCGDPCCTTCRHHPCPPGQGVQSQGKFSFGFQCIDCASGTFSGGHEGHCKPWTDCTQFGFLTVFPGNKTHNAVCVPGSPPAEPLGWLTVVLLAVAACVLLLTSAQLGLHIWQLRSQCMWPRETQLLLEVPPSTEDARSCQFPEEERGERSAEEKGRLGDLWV

T2: mfGITR.mmh (Macaca fasicularis)
T2 construct: soluble monomeric construct; also called Macaca fasicularis (mf) GITR.mmh; cynomolgus GITR protein
T2 chain: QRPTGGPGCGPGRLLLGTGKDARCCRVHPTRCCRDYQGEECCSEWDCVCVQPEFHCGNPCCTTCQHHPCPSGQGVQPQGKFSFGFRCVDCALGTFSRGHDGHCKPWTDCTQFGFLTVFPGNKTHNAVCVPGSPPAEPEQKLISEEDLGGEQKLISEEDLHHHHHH

T3: hGITR.mmh (human)
T3 construct: soluble monomeric construct; also called human (h) GITR.mmh; monomeric human GITR
T3 chain: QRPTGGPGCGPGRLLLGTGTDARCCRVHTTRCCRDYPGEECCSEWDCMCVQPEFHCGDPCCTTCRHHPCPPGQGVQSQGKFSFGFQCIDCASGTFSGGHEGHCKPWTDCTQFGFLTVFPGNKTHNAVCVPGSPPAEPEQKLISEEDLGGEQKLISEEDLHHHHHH

T4: hGITR.mFc (human)
T4 construct: soluble dimeric construct with mouse Fc; also called dimeric human GITR
T4 chain: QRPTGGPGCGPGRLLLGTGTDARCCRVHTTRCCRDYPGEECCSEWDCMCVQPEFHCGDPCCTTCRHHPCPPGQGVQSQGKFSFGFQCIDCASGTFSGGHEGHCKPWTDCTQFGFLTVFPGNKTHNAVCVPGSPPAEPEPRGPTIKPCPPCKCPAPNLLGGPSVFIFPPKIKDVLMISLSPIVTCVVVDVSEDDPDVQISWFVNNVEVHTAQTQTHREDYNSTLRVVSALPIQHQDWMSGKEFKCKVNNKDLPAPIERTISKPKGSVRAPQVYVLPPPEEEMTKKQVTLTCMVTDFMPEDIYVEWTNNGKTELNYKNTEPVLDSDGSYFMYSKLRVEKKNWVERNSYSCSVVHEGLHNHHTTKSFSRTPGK


Tests used:
[1] = biological target: T1, human GITR (amino acids M1-V241, NCBI …); test: cell-based or functional assay
[2] = biological target: T1, human GITR (amino acids M1-V241, NCBI …); test: ECL cell binding, hGITR/HEK293-D9
Protocol: Nonspecific binding sites were blocked with 2% BSA (w/v)+PBS for 1 h at room temperature (RT). Next, serial dilutions of anti-GITR antibodies, ranging from 1.7 pM to 100 nM, were added to cells for 1 h at RT. Plates were then washed to remove unbound antibodies (AquaMax2000 plate washer, MSD Analytical Technologies) and plate-bound antibodies were detected with a SULFO-TAG™ conjugated anti-human kappa light chain IgG antibody (Jackson Immunoresearch) for 1 h at RT.
Following washes, luminescent signals were recorded with a SECTOR Imager 6000 (MSD) instrument. Direct binding signals (relative light units, RLU) were analyzed as a function of the antibody concentration and data were fitted with a sigmoidal (four-parameter logistic) dose-response model using GraphPad Prism™ software. […] The signal detected with 100 nM antibody binding to the hGITR expressing cells versus parental cells was recorded as an indication of intensity and specificity of GITR binding.

mfGITR.mmh = biological target: T2, mfGITR.mmh; test: SPR 37C, mAb capture
Protocol: (§1) (Table 3). […] GITR proteins were injected over the sensor surface at a flow rate of 30 μL/minute. All Biacore binding studies were performed in a buffer composed of 0.01M HEPES pH 7.4, 0.15M NaCl, 3 mM EDTA, 0.05% v/v Surfactant P20 (HBS-ET running buffer). Antibody-reagent association was monitored for 4 minutes while dissociation in HBS-ET running buffer (10 mM HEPES, 150 mM NaCl, 3 mM EDTA, 0.05% (v/v) Surfactant P20, pH 7.4) was monitored for 10 minutes. Kinetic association (kₐ) and dissociation (kd) rate constants were determined by fitting the real-time sensorgrams to a 1:1 binding model using Scrubber 2.0c curve fitting software. Binding dissociation equilibrium constants (KD) and dissociative half-lives (t ½) were calculated from the kinetic rate constants as: KD [M]=kd/kₐ; and t_{1/2}(min)=(ln 2/(60*kd). Results are summarized in Table 3.

hGITR.mmh = biological target: T3, hGITR.mmh; test: SPR 37C, mAb capture
Protocol: as §1

hGITR.mFc = biological target: T4, hGITR.mFc; test: SPR 37C, mAb capture
Protocol: as §1

Binder	% Activation, NF-kB-Luc, non-anchored [1] [%]	% Blocking, NF-kB-Luc, non-anchored [1] [%]	EC50, hGITR activation, NF-kB-Luc, non-anchored [1] [nM]	IC50, blocking of hGITRL stimulation, NF-kB-Luc, non-anchored [1] [nM]	Average Signal (RLU) at 100 nM [2] [RLU]	EC50 [2] [nM]	Kd (mfGITR.mmh) [nM]	koff (mfGITR.mmh) [s⁻¹]	kon (mfGITR.mmh) [M⁻¹ s⁻¹]	t½ (mfGITR.mmh) [min]	Kd (hGITR.mmh) [nM]	koff (hGITR.mmh) [s⁻¹]	kon (hGITR.mmh) [M⁻¹ s⁻¹]	t½ (hGITR.mmh) [min]	Kd (hGITR.mFc) [nM]	koff (hGITR.mFc) [s⁻¹]	kon (hGITR.mFc) [M⁻¹ s⁻¹]	t½ (hGITR.mFc) [min]
H1H14491P (antibody, human IgG1, V domains shown, human IgG1 (H1H)) VH: QVQLVESGGGVVQPGRSLRLSCVASGFTFSDYGMHWVRQAPGKGLEWVAVIWYEGSNKYYADSVTGRFTISRDNSKNTLFLQMNSLKAEDTAEYYCAKDGGQLAYQYYYGMDVWGQGTTVTVSS VL: AIQMTQSPSSLSASVGDRVTLTCRASQGIRNDLGWYQQKPGKAPKSLIYAASNLQSGVPSRFSGSGSGTDFTLTISSLQPEDSATYYCLQDYNYPRTFGQGTKVEIK	60	90	2	0.6	6840	0.4	75.3	0.00889	118000	1.3	5.06	0.00162	319000	7.2	0.201	0.000169	842000	68.3
H1H14495P (antibody, human IgG1, V domains shown, human IgG1 (H1H)) VH: QVQLVESGGGAVQPGTSLRLSCAASGFTFSSFGMHWVRQAPGKGLEWVSVIWYEGSNKYYADSVKGRFTISRDNSRNTLSLQMDSLRVEDTAVYYCARGGELGVNYYYDMDVWGQGTTVTVSS VL: DIQMTQSPSSLSASVGDRVTITCRASQDIKNDLGWFQQKAGKAPKRLFYATSSLQSGVPSRFSGSGSGTEFTLTISSLQPEDFATYYCLQVHSYPRTFGQGTKVEIK	30	80	1.3	0.7	6470	0.43	24.5	0.00723	296000	1.6	2.45	0.00127	517000	9.1	0.0968	0.00011	1.14e+06	105
H1H14524P (antibody, human IgG1, V domains shown, human IgG1 (H1H)) VH: QVQLVESGGGVAQPGRSLSLSCAASGFTFSDYGMHWVRQAPGKGLEWVAVIWYAGSNKYYADSVKDRFTISRDNSKNTLYLQMRSLRVEDTAVYYCARGGELRLDYYSGLDVWGQGTTVTVSS VL: DIQMTQSPSSLSASVGDRVTVTCRASQGIRSDLGWYQQKPGKAPKRLIYAASSFQSGVPSRFSGSGSGTEFTLTISSLHPEDFATYYCLQSNNYPWTFGQGTKVEIK	40	80	2.2	0.7	5740	0.21	158	0.0189	120000	0.6	3.62	0.00147	405000	7.9	0.146	0.000135	922000	85.6

Further binders by falling EC50 [2], results first:

% Activation, NF-kB-Luc, non-anchored [1] [%]	% Blocking, NF-kB-Luc, non-anchored [1] [%]	EC50, hGITR activation, NF-kB-Luc, non-anchored [1] [nM]	IC50, blocking of hGITRL stimulation, NF-kB-Luc, non-anchored [1] [nM]	Average Signal (RLU) at 100 nM [2] [RLU]	EC50 [2] [nM]	Kd (mfGITR.mmh) [nM]	koff (mfGITR.mmh) [s⁻¹]	kon (mfGITR.mmh) [M⁻¹ s⁻¹]	t½ (mfGITR.mmh) [min]	Kd (hGITR.mmh) [nM]	koff (hGITR.mmh) [s⁻¹]	kon (hGITR.mmh) [M⁻¹ s⁻¹]	t½ (hGITR.mmh) [min]	Kd (hGITR.mFc) [nM]	koff (hGITR.mFc) [s⁻¹]	kon (hGITR.mFc) [M⁻¹ s⁻¹]	t½ (hGITR.mFc) [min]	Binder
–	–	–	–	4200	85	2.55	0.000611	240000	18.9	5.06	0.00138	272000	8.4	0.63	0.000185	293000	62.6	H4H14530P (antibody, human IgG4, V domains shown, human IgG4 (H4H)) VH: QLQLQESGPGLVKPSETLSLTCTVSGGSISSTNHYWGWIRQPPGKGLEWIGNVYYIGNAYYNPSLKTGVTFSVDTSKNQFSLNLRSVTAADTAMYYCARLSNWNFLDLWGQGTLVTVSS VL: EIVMTQSPATLSVSPGERATLSCRASQSISSNLAWYQQKPGQAPRLLIYGASTRATGIPARFSGSGSGTEFTLTISSLQSEDFAVYYCQQFNNWLSFGGGTKVEIK
40	70	2.5	0.9	6350	0.4	88.5	0.0109	123000	1.1	8.63	0.00186	216000	6.2	0.216	0.00012	555000	96.3	H1H14523P (antibody, human IgG1, V domains shown, human IgG1 (H1H)) VH: QVQLVESGGGVVQPGRSLRLSCEASGFTFSSYGMHWVRQAPGKGLEWVAVIWYSESNKYYTDSMKGRLTISRDNSKNTLYLQMNSLRAEDTAVYYCARGGLLGKYYYYGMDVWGQGTTVTVSS VL: DIQMTQSPSSLSASVGDRVIITCRASQDIRNDLGWYQQKPGKAPKRLIYAASSLQSGVPSRFSGSGSGTEFTLTISSLQPEDFATFYCLQLNSYPYTFGQGTKLEIK
30	80	1.2	0.8	6230	0.28	28	0.00951	339000	1.2	1.96	0.00116	591000	9.9	0.107	0.00013	1.21e+06	89.2	H1H14474P (antibody, human IgG1, V domains shown, human IgG1 (H1H)) VH: QVQLVESGGGVVQPGRSLRLSCAASGFTFSSYGMDWVRQAPGKGLEWVAVIWYPGSNKYYADSVKGRFTVSRDNSKNTLYLQMNSLRAEDTAVYYCARDGELGLDYYSGMDVWGQGTTVTVSS VL: DIQMTQSPSSLSASVGDRVTITCRASQGIRNDLNWYQQKPGKAPKRLINGASSLQSGVPSRFSGSGSGTEFTLTISSLQPEDFATYYCLQLNSYPRTFGQGTKVEIK
50	90	1.4	0.6	5880	0.21	20.9	0.0056	268000	2.1	1.39	0.000739	532000	15.6	0.137	0.000154	1.12e+06	75	H1H14503P (antibody, human IgG1, V domains shown, human IgG1 (H1H)) VH: QVQLVESGGGVVQPGRSLRLSCEASGFTFSNYGFHWVRQAPGKGLDWVAVIWYAGSNKFYVDSVQGRFTISRDNSKQILFLQMNSLRAEDSAVYYCVRGGILGIDYYSGMDVWGQGTTVTVSS VL: AIQMTQSPSSLSASVGDRVTITCRASQDIRNDLGWYQQRPGKAPKFLIYSTSSLQSGVPSRFSGSGSGTDFILTISSLQPEDFATYYCLQSHNYPWTFGHGTKVEIK
